Experimental data reported in the supplement of paper PMC9170038.

Test system: MS2 coat protein
Experiment: apparent KD of MS2 coat protein; designed switch direction (-1 OFF switch, 1 ON switch): -1; higher = weaker reporter binding
Outline: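 Designed RNA switches sharing common flanks were transcribed on Illumina chips by stalled E. coli RNA polymerase. They were titrated with SNAP-549-labelled MS2 coat protein, from 0.7 or 1.5 nM doubling to 3 µM, in Tris-HCl pH 7.5 buffer with KCl, MgCl2, BSA, DTT, tRNA and Tween-20. Titrations ran without input, with 200 uM small-molecule ligand, or with an oligonucleotide input. The apparent KD of each design is the median over its clusters, after curve-fitting of normalised cluster fluorescence.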

[1] = input ligand: microRNA oligo, concentration not stated
[2] = Eterna round: R95, input ligand: FMN 200 uM
[3] = Eterna round: R95, input ligand: microRNA oligo, concentration not stated
[4] = Eterna round: R95, input ligand: none

Row | Sequence | apparent KD of MS2 coat protein (input ligand: FMN 200 uM) | apparent KD of MS2 coat protein (input ligand: none) | apparent KD of MS2 coat protein [1] | apparent KD of MS2 coat protein [2] | apparent KD of MS2 coat protein [3] | apparent KD of MS2 coat protein [4]
1 | UACAGUCAUCCUUGUUGUUACAUGAGGAUCACCCAUGUUAGUAUAAUUAAGUUAUGUAAGUUUGUUGUUCGUUUUAU [JR_STOV1_v2_Sub076] (Eterna round: R97, puzzle: Sensor, turn-off variant 1) | 94.2 nM | 101 nM | – | – | – | –
2 | UACAUGAGGAUCACCCAUGUUUUGUCGUGUAUGGUAUUUAUCUAGGAUAUCAAUGUAUUAAUUUAUGAGAAGGAGAAUAUUAAU [JMF's solution 44] (Eterna round: R96, puzzle: Exclusion NG 3) | 42 nM | 43.2 nM | 27.3 nM | – | – | –
3 | UACAUGAGGAUCACCCAUGUUUUGUCGUGUAUGGUAUUUAUCUAGGAUAUCAAUUGAUUUAGUUAUGAGAAGGAGAAUAUUAAU [JMF's solution 62] (Eterna round: R96, puzzle: Exclusion NG 3) | 27.2 nM | 30.1 nM | 20.6 nM | – | – | –
4 | UACAUGAGGAUCACCCAUGUUUUGUCGUGUAUGGUAUUUAUCUAGGAUAUCAAUUUGAUUAUUUAUGAGAAGGAGAAUAUUAAU [JMF's solution 65] (Eterna round: R96, puzzle: Exclusion NG 3) | 39.1 nM | 39.1 nM | 28.8 nM | – | – | –
5 | UACAUGAGGAUCACCCAUGUUUUGUCGUGUAUGGUAUUUAUCUAGGAUAUCACGUUAUUUAUUUAUGAGAAGGAGAAUAUUAAU [JMF's solution 26] (Eterna round: R96, puzzle: Exclusion NG 3) | 38.9 nM | 39 nM | 17.1 nM | – | – | –
6 | UACAUGAGGAUCACCCAUGUUUUGUCGUGUAUGGUAUUUAUCUAGGAUAUCAUUCUAUUUAUUUAUGAGAAGGAGAAUAUUAAU [JMF's solution 98] (Eterna round: R96, puzzle: Exclusion NG 3) | 33.4 nM | 29.7 nM | 23.5 nM | – | – | –
7 | UACAUGAGGAUCACCCAUGUUUUGUCGUGUAUGGUAUUUAUCUAGGAUAUCAUUUUAAUUAGUUAUGAGAAGGAGAAUAUUAAU [JMF's solution 87] (Eterna round: R96, puzzle: Exclusion NG 3) | 33.7 nM | 32.5 nM | 24.4 nM | – | – | –
8 | UACAUGAGGAUCACCCAUGUUUUGUCGUGUAUGGUAUUUAUCUAGGAUAUCAUUUUAUCUAGUUAUGAGAAGGAGAAUAUUAAU [JMF's solution 89] (Eterna round: R96, puzzle: Exclusion NG 3) | – | – | 26.6 nM | – | – | –
9 | UACGAACUAGGAUAUGCAAUGGGCUCGCUUUCCUUCGAUAAACUUGAGGAUCACCCAAGUAGAAGGAGUUUGUA [Mod 38 - Jieux - Exclusion 2] (Eterna round: R97, puzzle: Exclusion 2) | 40.8 nM | 16.6 nM | – | – | – | –
10 | UACGGUCCUAACAUGAGGAUCACCCAUGUAACAAAAGAAACCUAGGAUAUCCGCGCCGGAAGGAAGGAGAAGGAGGGCGUGGCA [Ededti] (Eterna round: R96, puzzle: Exclusion NG 3) | 50.7 nM | 51.8 nM | 34.3 nM | – | – | –
11 | UAGCAGAGAGGAUAUACAUUCAUCACCCGCGCAACAAGCGCACAUGAGGAUCACCCAUGUAGAAGGCUCGUGCC [EX2 C.20] (Eterna round: R97, puzzle: Exclusion 2) | 53.6 nM | 31.7 nM | – | – | – | –
12 | UAGCUUUAUGUUAGGAUAUUCGCGCAUAUACUGCCGAAGAAGGAACAUGAGGAUCACCCAUGUACACGCCUAUG [Eternabot (L1) Solution 60] (Eterna round: R97, puzzle: Brourd's mod of Exclusion 4) | 81.1 nM | 20.9 nM | – | – | – | –
13 | UAGGAGUCAGGAUAUGCGAGAGAUUGAAGUAUGGGAAGUGAGCAGAAGGGACAUGAGGAUCACCCAUGUGAGAA [JR_Exclu4_Sub094] (puzzle: Exclusion 4) | – | – | – | 52.1 nM | 46.8 nM | 45 nM
14 | UAUAAAACAUAGGAUAUCGAAUAUAUCAUUUAACGAGAAGGAUGAACAUGAGGAUCACCCAUGUGGUAUCAUGG [Mat - Exclusion 6 - JL Mod - D8] (puzzle: Exclusion 6) | – | – | – | 286 nM | 262 nM | 172 nM
15 | UAUAACAGAGGAUAUGCGAAUAAAUAAAACUUUUUUUUUUAACAUGAGGAUCACCCAUGUAGAAGGCUGAUAUU [Ex2 #22] (Eterna round: R97, puzzle: Exclusion 2) | 28.5 nM | 51.6 nM | – | – | – | –
16 | UAUACACAUGAGGAUCACCCAUGUGAGGAUAUGUAAAAAAAACCGACGGUUUUUUUUUACAGAAGGCACAUAUA [JR_Exclusion1_Sub026] (puzzle: Exclusion 1) | – | – | – | – | 52.5 nM | –
17 | UAUACUAGAUAGGAUAUACUAUAUAUAUUUUUCGUAGAAGGAUCUACAUGAGGAUCACCCAUGUUAACAGCAGU [JR_E6_Sub007] (puzzle: Exclusion 6) | – | – | – | 45 nM | 42.9 nM | 41.5 nM

Row | Sequence | apparent KD of MS2 coat protein (input ligand: FMN 200 uM) | apparent KD of MS2 coat protein (input ligand: none) | apparent KD of MS2 coat protein [1] | apparent KD of MS2 coat protein [2] | apparent KD of MS2 coat protein [3] | apparent KD of MS2 coat protein [4]
18 | UAUAUAUAGUAAGGAUAUGUAAUCAUUUUAUAAACAGAAGGUACUGACAUGAGGAUCACCCAUGUUUUAGUGUGGGCAUGUAGA [JMF's solution 31] (Eterna round: R96, puzzle: Exclusion NG 1) | – | – | 64.6 nM | – | – | –
19 | UAUAUAUAGUAAGGAUAUGUAUAUAUUAUAUAAACAGAAGGUACUGACAUGAGGAUCACCCAUGUUUUAGUGUGGGCAUGUAGA [JMF's solution 60] (Eterna round: R96, puzzle: Exclusion NG 1) | – | – | 53.3 nM | – | – | –
20 | UAUAUAUAGUAAGGAUAUGUAUAUAUUUUAUUAACAGAAGGUACUGACAUGAGGAUCACCCAUGUUUUAGUGUGGGCAUGUAGA [JMF's solution 69] (Eterna round: R96, puzzle: Exclusion NG 1) | – | – | 55.2 nM | – | – | –
21 | UAUAUAUAGUAAGGAUAUGUAUUAAUUUUAUAAACAGAAGGUACUGACAUGAGGAUCACCCAUGUUUUAGUGUGGGCAUGUAGA [JMF's solution 9] (Eterna round: R96, puzzle: Exclusion NG 1) | – | – | 72.8 nM | – | – | –
22 | UAUAUAUAGUAAGGAUAUGUAUUUAGUUUAUAAACAGAAGGUACUGACAUGAGGAUCACCCAUGUUUUAGUGUGGGCAUGUAGA [JMF's solution 14] (Eterna round: R96, puzzle: Exclusion NG 1) | – | – | 71.2 nM | – | – | –
23 | UAUAUGCAAGCGAGAUCCCACAUGAGGAUCACCCAUGUAAUAAAUAAGCACAGAAUUACUGUGAAAGCUCGUCUUAU [Winner reversed engineered 37] (Eterna round: R97, puzzle: Sensor, turn-off variant 1) | 92.5 nM | 105 nM | – | – | – | –
24 | UAUAUGUCAGGAUAUUAGUUGAGGUGGAAUUUAGCCUAUGCUGAGAAGGGACAUGAGGAUCACCCAUGUUCCUC [JR_Ex4_Sub011] (Eterna round: R97, puzzle: Exclusion 4) | 93.9 nM | 19.1 nM | – | – | – | –
25 | UAUAUGUCAGGAUAUUAGUUGUGUUCGAAUUUCACUUCUGCUGAGAAGGGACAUGAGGAUCACCCAUGUUCCUC [JR_Ex4_Sub006] (Eterna round: R97, puzzle: Exclusion 4) | 17.1 nM | 15.9 nM | – | – | – | –
26 | UAUGGUAAAGUCAGGAUAUACGUACGUCGUUCUAGGUAGAAGGGACAUGAGGAUCACCCAUGUAUGAUAGUAAA [Ex4 #35] (Eterna round: R97, puzzle: Brourd's mod of Exclusion 4) | 36.1 nM | 41.6 nM | – | – | – | –
27 | UAUGGUUAAGUCAGGAUAUACUAAUAGAAAUCUGAGUAGAAGGGACAUGAGGAUCACCCAUGUAUGGUAGUGUU [Ex4 #58] (Eterna round: R97, puzzle: Brourd's mod of Exclusion 4) | 77.1 nM | 55.2 nM | – | – | – | –
28 | UAUGUGUCAGGAUAUUAAUUAUAGGAGAAUGUGACGAUGAUUAAGAAGGGACAUGAGGAUCACCCAUGUUCAUC [JR_Ex4_Sub025] (Eterna round: R97, puzzle: Exclusion 4) | 21.3 nM | 19 nM | – | – | – | –
29 | UAUGUUAGCACAGGAUAUUGUUAUUAUUUAAUUCAAGAAGGGUGUACAUGAGGAUCACCCAUGUUAUGGUUUUAUCUUUUACAA [JR_ExcNG1_Sub013] (Eterna round: R96, puzzle: Exclusion NG 1) | – | – | 957 nM | – | – | –
30 | UAUUAACAAGCGAGAUCCUACAUGAGGAUCACCCAUGUGCUCGUCUUAUAAGGUACUGUGACGAAAGUCACGGUACC [Eli 91 v37] (Eterna round: R97, puzzle: Sensor, turn-off variant 1) | 19.5 nM | 21 nM | – | – | – | –
31 | UAUUAACAAGUAAGAUCCUACAUGAGGAUCACCCAUGUGCUCGUCUUAUAAGGUACUGUGACGAAAGUCACGGUACC [Sensor 3, v1 - 72] (puzzle: Sensor v3, turn-off variant 1) | – | – | – | 37.6 nM | 46.7 nM | 39.4 nM
32 | UAUUAAUGCAAGGAUAUGCUAUUAAUUUAUUUUGCAGAAGGUGCAACAUGAGGAUCACCCAUGUUGGAGGGUAU [JR_E6_Sub028] (puzzle: Exclusion 6) | – | – | – | – | 19.3 nM | –
33 | UAUUACUCAGGAUAUAUGAUGUGAAACAUGAGGAUCACCCAUGUAAUAUUAUGGAUGUAAAUAGAAGGGAGAUUUU [Mat - Exclusion 5 - JL mod - D18] (puzzle: Exclusion 5) | – | – | – | 51.8 nM | 68.4 nM | 54.8 nM
34 | UAUUAGCAAGCAAGAUCCCACAUGAGGAUCACCCAUGUGCUCGUCUUAUAAGGUACUGUGACGAAAGUCACGGUACC [Sensor 3, v1 - 83] (puzzle: Sensor v3, turn-off variant 1) | – | – | – | 36.8 nM | 1080 nM | 38 nM
